Measured values reported in the supplement of paper PMC9732359.
± gives the uncertainty stated by the source.

Experiment: protein stability index of a GFP-peptide fusion (yeast GPS) (PSI 1-4); higher = more stable; sorted into four equal gates, so the index is relative within each strain
Summary of the method: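 Sequencing reads from sorted gates were used to score each peptide. The library consisted of tiled 17-residue yeast protein peptides fused downstream of GFP on a Cherry-expressing plasmid, pooled and carried in yeast. Mid-log cultures in leucine-free medium were split into four equal gates by GFP/Cherry ratio, and each gate's plasmids were PCR-amplified and Illumina-sequenced. The protein stability index adds up, over all gates, the read frequency multiplied by the gate number.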

Sequence | protein stability index (doa10∆) | protein stability index (pdr5∆) | protein stability index (ubr1∆) | protein stability index (san1∆)
LDGDRADKRGVLTGGYL [SMC3] | 2.93 ± 0.2 | 3.03 ± 0.23 | 3.07 ± 0.2 | –
ELGEFFVNGVATSFSRK [FAS2] | 2.98 ± 0.07 | 2.6 ± 0.075 | 2.69 ± 0.048 | 2.63 ± 0.1
SQLAQVAAFVNNYPNVE [BRR2] | 2.33 ± 0.064 | 2.63 ± 0.068 | 2.76 ± 0.051 | 2.68 ± 0.067
PKNSSSPVQIAFNRFMA [SSN8] | 1.51 ± 0.053 | 1.74 ± 0.05 | 1.57 ± 0.054 | 1.52 ± 0.1
DHLKLVSLFSNLRHERN [YIL149C/MLP2] | 2.41 ± 0.092 | 2.67 ± 0.19 | 2.44 ± 0.097 | 2.5 ± 0.26
QQVVCIFSYGPHIQKML [POP6] | 1.66 ± 0.053 | 1.77 ± 0.047 | 2.07 ± 0.054 | 1.74 ± 0.11
VDVQAPTDDKTLKPTFS [YOR098C/NUP1] | 3.05 ± 0.15 | 3.23 ± 0.18 | 3.27 ± 0.076 | 3.16 ± 0.19
VAKTAPNSNKTHTEQNN [SNF2] | 2.82 ± 0.04 | 3.07 ± 0.052 | 3.06 ± 0.037 | 3.01 ± 0.033
NVFHGLCAGANNPKIQT [IRR1] | 1.59 ± 0.062 | 1.97 ± 0.077 | 1.56 ± 0.073 | 1.48 ± 0.086
TKQRLDAYYDLELRNSV [PRP8] | 2.64 ± 0.046 | 2.93 ± 0.039 | 2.74 ± 0.035 | 2.86 ± 0.039
LPFYAILRSIPDKLLGV [COB] | 2.59 ± 0.041 | 2.07 ± 0.039 | 1.99 ± 0.046 | 2.1 ± 0.055
MGEAQTGANFDDVERGV [REC8] | 3.37 ± 0.093 | 2.98 ± 0.11 | 3.24 ± 0.081 | 3.52 ± 0.17
VEFNRKVVIPNLLCYYN [RPN3] | – | 1.67 ± 0.22 | – | –
IDEVFSWYLNTFDGIRM [GRR1] | 2.42 ± 0.049 | 1.83 ± 0.039 | 1.88 ± 0.039 | 2.14 ± 0.062
ARYNWICNPVHKHREAR [RPL15B] | 2.94 ± 0.083 | 2.68 ± 0.088 | 3.04 ± 0.095 | 2.36 ± 0.11
EKTMMTFGKPEEEDSIL [YCS4] | 3.27 ± 0.15 | 3.37 ± 0.14 | 3.27 ± 0.088 | 3.35 ± 0.063
NEAEQVYLSLLDKDSSQ [RPN6] | 3.03 ± 0.2 | 3.29 ± 0.076 | 3.45 ± 0.22 | –
HIGHSALKGPVRDKLDE [DPB4] | 3.29 ± 0.085 | 3.18 ± 0.068 | 3.2 ± 0.083 | 3.11 ± 0.084
LARDTPSANNSSSIKST [RRP4] | 2.86 ± 0.076 | 2.91 ± 0.057 | 3.14 ± 0.054 | 2.97 ± 0.047
IDVDMDASPAPSNESCS [SRB5] | 2.6 ± 0.053 | 2.58 ± 0.05 | 2.32 ± 0.049 | 2.66 ± 0.057
ELLSMNIAPRLRLEDIF [RET1] | 2.57 ± 0.065 | 2.25 ± 0.046 | 2.5 ± 0.047 | 2.35 ± 0.057

Sequence | protein stability index (doa10∆) | protein stability index (pdr5∆) | protein stability index (ubr1∆) | protein stability index (san1∆)
VYDIMALEDEERDEILT [BRR2] | 3.15 ± 0.16 | 3.28 ± 0.15 | 3.39 ± 0.096 | 3.08 ± 0.078
RAQHVKKLATRPKCGDC [RPL34A] | 3.06 ± 0.14 | 3.06 ± 0.12 | 3.13 ± 0.084 | 2.69 ± 0.11
EMKNIRGPYLVIVPLST [SNF2] | 1.44 ± 0.054 | 1.51 ± 0.053 | 1.38 ± 0.043 | 1.44 ± 0.087
ADKPFTRLTAYQELAYR [YML031W/NDC1] | 2.52 ± 0.12 | 3.17 ± 0.11 | 3 ± 0.098 | 3.06 ± 0.18
QLKAEEKKILNQFLKIK [SMC1] | 2.8 ± 0.045 | 3.19 ± 0.1 | 2.99 ± 0.078 | 2.84 ± 0.09
VTDKYTAKKTNRSAYDS [YDL088C/ASM4] | 2.81 ± 0.089 | 3.26 ± 0.081 | 2.79 ± 0.043 | 2.96 ± 0.14
VARTFWASKYGQEYPRI [BRR2] | 2.42 ± 0.15 | 2.38 ± 0.17 | 3.06 ± 0.094 | 2.32 ± 0.17
MARGPKKHLKRLAAPHH [RPS4A] | 2.9 ± 0.13 | 3 ± 0.087 | 3.05 ± 0.054 | 3.1 ± 0.069
SQTTLVQFGLNEETFTV [ARP9] | 2.85 ± 0.086 | 2.92 ± 0.072 | 2.64 ± 0.059 | 2.77 ± 0.069
KGDGMTSAVASIGSIYQ [RPN1] | 2.67 ± 0.28 | 3.14 ± 0.2 | 3.03 ± 0.14 | 2.57 ± 0.23
AVYGPRSIRGSFTSQGT [MTR3] | 3.16 ± 0.12 | 3.2 ± 0.086 | 3.02 ± 0.058 | 3.08 ± 0.098
YTEQFQHYKNNSISSQP [SSN2] | 2.76 ± 0.14 | 2.95 ± 0.11 | 2.98 ± 0.1 | 3.09 ± 0.15
YIIQGSNTNDNISIITL [RGR1] | 2.77 ± 0.075 | 2.29 ± 0.083 | 2.22 ± 0.063 | 2.19 ± 0.15
MAVKTGIAIGLNKGKKV [RPL36B] | – | 1.49 ± 0.2 | – | –
KSRPDRPKPVSPPCYII [SNF5] | 2.93 ± 0.063 | 3.08 ± 0.057 | 2.95 ± 0.041 | 2.98 ± 0.069
EELLQLFLNNFVSRIPI [IRR1] | 3.12 ± 0.058 | 2.74 ± 0.055 | 2.7 ± 0.041 | 2.75 ± 0.054
TNIHEPQYINYSSIPSL [SSN2] | 2.89 ± 0.23 | 2.46 ± 0.14 | – | –
PVVINLDAKNKVFVPPK [RPO31] | 2.93 ± 0.12 | 3.13 ± 0.13 | 2.95 ± 0.15 | 3.33 ± 0.11
IDSVEVETNTTVLADEF [RPB3] | 2.96 ± 0.076 | 3.17 ± 0.071 | 3.16 ± 0.037 | 3.09 ± 0.051
GAKYVIRDSGDRIDLRY [RPO21] | 3.23 ± 0.16 | 3.31 ± 0.15 | 3.45 ± 0.13 | –
NQIPVTEHSKVTRFDEK [SRB6] | 2.28 ± 0.05 | 3.02 ± 0.049 | 2.87 ± 0.048 | 2.86 ± 0.052
